Measured values taken from US20240336656A1.
Starred links: 1 amine or outer side, 2 acyl side, 3 side chain; linkers in the order of their positions; H or OH if unused. Positions of bridges follow the written chain, without caps; N, C: chain ends. Non-standard residues stand in square brackets, D forms with d. Groups on a side chain read outwards from the residue. Chains are numbered I, II in the order given. No end group written: not given here. *: point of attachment. TATA = O=C(CC[*:1])N1CN(C(=O)CC[*:2])CN(C(=O)CC[*:3])C1; PEG12 = NCCOCCOCCOCCOCCOCCOCCOCCOCCOCCOCCOCCOCCC(=O)O; Biotin = O=C1N[C@H]2[C@H](CS[C@H]2CCCCC(=O)*)N1; 1Nal = N[C@@H](Cc1cccc2ccccc12)C(=O)O; Hyp = O=C(O)[C@@H]1C[C@@H](O)CN1; hArg = N=C(N)NCCCC[C@H](N)C(=O)O; tBuAla = CC(C)(C)C[C@H](N)C(=O)O; Nle = CCCC[C@H](N)C(=O)O; Pent4ynoyl = C#CCCC(=O)*

T1: cyno CD137 extracellular domain (cyno), A9YYE7
T1 chain: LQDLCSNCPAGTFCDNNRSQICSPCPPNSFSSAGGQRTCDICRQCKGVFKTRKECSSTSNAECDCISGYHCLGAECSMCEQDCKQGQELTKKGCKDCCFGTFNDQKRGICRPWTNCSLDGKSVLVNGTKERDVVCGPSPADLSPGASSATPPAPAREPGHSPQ

B1: BCY13582 (peptide)
peptide 1: {N‑(acid-PEG3)‑N‑bis(PEG3-azide) linker}-CP[1Nal][dD]CM[hArg]DWSTP[Hyp]WC
peptide 2: Ac-C[tBuAla]PE[dK](Pent4ynoyl)PYCFADPY[Nle]CA
peptide 3: Ac-C[tBuAla]PE[dK](Pent4ynoyl)PYCFADPY[Nle]CK([PEG12-Biotin])
modifications: linker I:1-I:5-I:15, II:1-II:8-II:15, III:1-III:8-III:15 via TATA; not fully specified (bridges); also: chains 2 and 3 triazole-clicked via D-Lys(PYA) to the N-(acid-PEG3)-N-bis(PEG3-azide) linker, chain 1 joined to the linker at its N-terminus
B2: BCY13583 (peptide)
peptide 1: {N‑(acid-PEG3)‑N‑bis(PEG3-azide) linker}-CP[1Nal][dD]CM[hArg]DWSTP[Hyp]WC
peptide 2: Ac-C[tBuAla]PE[dK](Pent4ynoyl)PYCFADPY[Nle]CA
peptide 3: Ac-C[tBuAla]PE[dK](Pent4ynoyl)PYCFADPY[Nle]CK(Alexa Fluor 488)
modifications: linker I:1-I:5-I:15, II:1-II:8-II:15, III:1-III:8-III:15 via TATA; not fully specified (bridges); also: chains 2 and 3 triazole-clicked via D-Lys(PYA) to the N-(acid-PEG3)-N-bis(PEG3-azide) linker, chain 1 joined to the linker at its N-terminus

Tests used:
[1] = target: human CD137 extracellular domain (human), Q07011; test: SPR direct binding, BCY13582 captured with reversible biotin capture kit, soluble CD137 ECD; n = 3
Sequence of human CD137 extracellular domain (human), Q07011 (Q07011 24-186): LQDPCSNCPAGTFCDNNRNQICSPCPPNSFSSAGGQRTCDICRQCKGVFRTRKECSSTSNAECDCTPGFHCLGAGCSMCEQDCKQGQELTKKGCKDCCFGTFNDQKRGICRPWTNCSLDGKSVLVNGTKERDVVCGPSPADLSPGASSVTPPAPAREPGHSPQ

[2] = target: T1, cyno CD137 extracellular domain (cyno), …; test: SPR direct binding, BCY13582 captured with reversible biotin capture kit, soluble CD137 ECD; n = 1
[3] = target: CD137 (TNFRSF9) on cells (human), Q07011; test: cell-based or functional assay
Sequence of CD137 (TNFRSF9) on cells (human), Q07011 (Q07011 24-255): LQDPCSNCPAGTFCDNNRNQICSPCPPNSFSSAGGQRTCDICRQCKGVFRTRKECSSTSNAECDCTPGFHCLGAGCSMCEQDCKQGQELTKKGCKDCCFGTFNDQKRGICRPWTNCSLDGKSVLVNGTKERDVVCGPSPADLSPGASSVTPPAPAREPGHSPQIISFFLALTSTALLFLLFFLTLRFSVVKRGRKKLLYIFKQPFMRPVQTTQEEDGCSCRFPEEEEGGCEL

Row | Binder | Kd [1] [nM] | Kd [2] [nM] | EC50 (nM) of fold induction over background, CD137 reporter assay, coculture with HT1376 (human) [3] [nM] | EC50 (nM) of fold induction over background, CD137 reporter assay, coculture with MDA-MB-468 (human) [3] [nM]
1 | B1 | 8.4 | 4.23 | 0.58 | 0.34
2 | B2 | – | – | 1.7 | 0.84
